Test results reported in patent publication US20230051715A1 (MABWELL THERAPEUTICS, published 2023).

How the values were obtained:
[1] = molecular target: T1, C1s in normal human serum (NHS, CompTech NHS) (human, UniProt P09871 16-688); test: cell-based or functional assay
T1 sequence (looked up): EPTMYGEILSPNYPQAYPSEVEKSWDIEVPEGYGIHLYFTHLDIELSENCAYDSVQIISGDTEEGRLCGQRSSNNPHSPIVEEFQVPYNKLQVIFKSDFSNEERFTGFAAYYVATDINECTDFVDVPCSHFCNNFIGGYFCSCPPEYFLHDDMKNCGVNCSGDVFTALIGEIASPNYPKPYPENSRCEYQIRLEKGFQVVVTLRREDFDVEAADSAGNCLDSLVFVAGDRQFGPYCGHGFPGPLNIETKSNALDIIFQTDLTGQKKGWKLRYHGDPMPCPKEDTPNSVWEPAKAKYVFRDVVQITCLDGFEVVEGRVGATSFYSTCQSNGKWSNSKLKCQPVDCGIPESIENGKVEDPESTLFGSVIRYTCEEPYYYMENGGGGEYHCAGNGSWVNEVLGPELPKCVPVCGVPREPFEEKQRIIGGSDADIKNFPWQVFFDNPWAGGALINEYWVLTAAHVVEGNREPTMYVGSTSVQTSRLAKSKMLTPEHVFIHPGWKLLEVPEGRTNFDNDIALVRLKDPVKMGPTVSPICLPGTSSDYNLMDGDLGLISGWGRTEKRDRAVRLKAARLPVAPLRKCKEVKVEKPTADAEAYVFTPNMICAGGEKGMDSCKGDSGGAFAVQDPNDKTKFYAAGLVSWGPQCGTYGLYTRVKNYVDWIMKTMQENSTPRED

[2] = molecular target: T2, C1s in normal cynomolgus monkey serum (CMS, CompTech NCYS) (cynomolgus monkey, UniProt A0A2K5VQX9 16-685); test: cell-based or functional assay
T2 sequence: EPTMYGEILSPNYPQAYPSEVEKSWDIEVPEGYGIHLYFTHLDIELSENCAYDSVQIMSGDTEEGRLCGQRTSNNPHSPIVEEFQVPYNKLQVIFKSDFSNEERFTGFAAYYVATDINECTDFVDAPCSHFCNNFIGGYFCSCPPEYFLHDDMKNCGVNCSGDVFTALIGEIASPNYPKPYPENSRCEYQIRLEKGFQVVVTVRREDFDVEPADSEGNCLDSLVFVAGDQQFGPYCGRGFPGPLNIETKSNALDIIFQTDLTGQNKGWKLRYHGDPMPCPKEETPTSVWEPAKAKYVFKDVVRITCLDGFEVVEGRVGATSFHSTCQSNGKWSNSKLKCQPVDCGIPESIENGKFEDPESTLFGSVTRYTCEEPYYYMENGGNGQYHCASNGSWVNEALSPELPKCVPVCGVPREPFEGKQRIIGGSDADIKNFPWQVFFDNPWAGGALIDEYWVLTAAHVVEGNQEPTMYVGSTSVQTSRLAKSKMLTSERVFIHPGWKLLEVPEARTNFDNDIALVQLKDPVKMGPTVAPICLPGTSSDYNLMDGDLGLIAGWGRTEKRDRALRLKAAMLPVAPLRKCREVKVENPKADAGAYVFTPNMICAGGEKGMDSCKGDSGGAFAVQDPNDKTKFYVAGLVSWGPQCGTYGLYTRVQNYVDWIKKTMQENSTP

[3] = molecular target: T3, human C1s deletion mutant 1 (M151) (human) (UniProt P09871); test: ELISA, plate coated with 200 ng/well HuC1s(M151), OD450nm
T3 sequence: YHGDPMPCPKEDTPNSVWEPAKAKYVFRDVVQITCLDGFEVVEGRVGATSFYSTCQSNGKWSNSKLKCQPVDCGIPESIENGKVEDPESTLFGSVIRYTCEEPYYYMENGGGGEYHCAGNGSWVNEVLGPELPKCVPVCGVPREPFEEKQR

[4] = molecular target: T4, human C1s deletion mutant 2 (NHC) (human, UniProt P09871 16-437); test: ELISA, plate coated with 200 ng/well HuC1s(NHC), OD450nm
T4 construct: C-terminal 6xHis tag; also called HuC1s(NHC); huC1sNHC
T4 sequence: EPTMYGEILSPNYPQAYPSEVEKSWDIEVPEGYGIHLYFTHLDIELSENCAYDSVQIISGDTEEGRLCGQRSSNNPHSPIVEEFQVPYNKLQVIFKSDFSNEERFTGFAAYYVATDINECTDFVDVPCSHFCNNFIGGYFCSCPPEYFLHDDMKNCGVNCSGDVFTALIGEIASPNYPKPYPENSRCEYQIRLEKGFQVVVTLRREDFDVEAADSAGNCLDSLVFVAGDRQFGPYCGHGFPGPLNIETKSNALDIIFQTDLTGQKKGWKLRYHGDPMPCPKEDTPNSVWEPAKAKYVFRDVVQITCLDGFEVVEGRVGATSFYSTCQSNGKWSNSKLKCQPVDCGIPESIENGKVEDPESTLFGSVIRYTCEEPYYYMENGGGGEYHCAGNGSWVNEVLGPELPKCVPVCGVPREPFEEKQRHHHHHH
Procedure: (§1) ELISA was carried out by first coating 96-well plates with 200 ng/well of full-length or truncated C1s proteins overnight. The next morning, plates were blocked with SuperBlock T20 blocking buffer (Thermo Scientific 37536) for 1 h with gentle shaking. Then, various concentrations of anti-C1s antibodies diluted in SuperBlock T20 blocking buffer were added to the plates and incubated for 1 h with gentle shaking. Mouse IgG (Sigma-Aldrich 15381) and human IgG1 (BioXCell BP0297) were used as negative controls. The plates were washed before incubating with HRP conjugated secondary antibodies diluted in SuperBlock T20 blocking buffer (goat anti-mouse IgG (H+L) cross-adsorbed secondary antibody HRP (Invitrogen G-21040) or goat anti-human IgG antibody, HRP conjugate (Millipore AP309P)) for 1 h with gentle shaking. At last, the plates were washed and color developed with ELISA liquid HRP substrate (Sigma-Aldrich), followed by stopping the reaction with addition of 1M H₂SO₄ in the same volume as the ELISA liquid substrate. Bound antibody was measured by absorbance at OD₄₅₀ₙₘ.

[5] = molecular target: T5, full-length human C1s (produced in house) (human, UniProt P09871 16-688); test: ELISA, plate coated with 200 ng/well full-length HuC1s, OD450nm
T5 construct: Called full-length; Partly auto-cleaved at R422-I423 on blots; also called HuC1s; Hu C1s
T5 sequence: T1 sequence (looked up)
Procedure: as §1

[6] = molecular target: T6, full-length mouse C1s (produced in house) (mouse, UniProt Q8CG14 16-688); test: ELISA, plate coated with 200 ng/well full-length MoC1s, OD450nm
T6 construct: Called full-length; also called MoC1s; moC1s
T6 sequence: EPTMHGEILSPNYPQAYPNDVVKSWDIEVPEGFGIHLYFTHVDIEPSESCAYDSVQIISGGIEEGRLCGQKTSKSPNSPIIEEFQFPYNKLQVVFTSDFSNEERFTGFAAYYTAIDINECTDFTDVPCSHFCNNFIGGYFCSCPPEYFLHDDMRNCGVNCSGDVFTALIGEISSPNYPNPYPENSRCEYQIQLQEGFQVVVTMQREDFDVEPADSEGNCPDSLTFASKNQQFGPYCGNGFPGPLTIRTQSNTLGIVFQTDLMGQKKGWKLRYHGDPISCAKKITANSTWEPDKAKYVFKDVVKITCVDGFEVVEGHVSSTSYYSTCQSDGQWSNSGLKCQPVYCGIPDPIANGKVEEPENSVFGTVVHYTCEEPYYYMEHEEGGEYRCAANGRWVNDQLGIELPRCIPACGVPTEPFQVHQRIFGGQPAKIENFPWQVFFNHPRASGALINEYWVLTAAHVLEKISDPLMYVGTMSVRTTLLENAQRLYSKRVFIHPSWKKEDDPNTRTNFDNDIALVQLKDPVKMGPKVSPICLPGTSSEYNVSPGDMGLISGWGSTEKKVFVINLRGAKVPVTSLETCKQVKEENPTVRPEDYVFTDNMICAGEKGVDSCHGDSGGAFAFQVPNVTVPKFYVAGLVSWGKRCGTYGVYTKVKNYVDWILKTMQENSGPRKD
Procedure: as §1

B1: Anti-C1s antibody hz2-8(H1L2) (antibody, V domains shown)
VH: QVQLVQSGAEVKKPGASVKVSCKASGFNIKEYYMHWVRQAPEQGLEWMGWIDPENGDTIYAQKFQGRVTITADTSTNTAYMELSSLRSEDTAVYYCARSRLFFAYWGQGTLVTVSS
VL: DIQMTQSPKSLSASVGDRVTITCRASQDVRTALDWYQQKPGQSPKLLIYSASYRYSGVPSRFSGSGSGTDFTLTISSLQPEDFATYYCQQQYTTPYTFGQGTKLEIKR
notes: Humanized, human IgG1 / kappa
IC50, inhibition of IgM-induced C4 deposition from NHS [1]: 0.2 µg/mL
IC50, inhibition of human complement-mediated lysis of antibody-sensitized sheep erythrocytes (EA) [1]: 0.2 µg/mL
IC50, inhibition of IgM-induced C4 deposition from CMS [2]: 0.2 µg/mL
IC50, inhibition of cynomolgus monkey complement-mediated lysis of EA [2]: 0.1 µg/mL
EC50 [3]: 0.003 µg/mL
EC50 [4]: 0.003 µg/mL
EC50 [5]: 0.002 µg/mL
binding result [6]: no binding (tested: 1000 ng/ml (Log 3))
